Key:
recombinant laminin 411 = recombinant laminin 411 (human, UniProt P07942 22-1786; P11047 34-1609, limits assumed); assay: cell-based or functional assay
mouse His-laminin-α4 = molecular target: T1, mouse His-laminin-α4 (mouse, UniProt P97927 826-1816, limits assumed); assay: ELISA hMCAM-Fc capture blocking assay; antibody pre-incubated with mouse LAMA4-His; blocked partner: captured hMCAM-Fc
T1 construct: Bought His-tagged recombinant protein; also called Murine LAMA4; recombinant mouse LAMA4-His
T1 sequence (looked up): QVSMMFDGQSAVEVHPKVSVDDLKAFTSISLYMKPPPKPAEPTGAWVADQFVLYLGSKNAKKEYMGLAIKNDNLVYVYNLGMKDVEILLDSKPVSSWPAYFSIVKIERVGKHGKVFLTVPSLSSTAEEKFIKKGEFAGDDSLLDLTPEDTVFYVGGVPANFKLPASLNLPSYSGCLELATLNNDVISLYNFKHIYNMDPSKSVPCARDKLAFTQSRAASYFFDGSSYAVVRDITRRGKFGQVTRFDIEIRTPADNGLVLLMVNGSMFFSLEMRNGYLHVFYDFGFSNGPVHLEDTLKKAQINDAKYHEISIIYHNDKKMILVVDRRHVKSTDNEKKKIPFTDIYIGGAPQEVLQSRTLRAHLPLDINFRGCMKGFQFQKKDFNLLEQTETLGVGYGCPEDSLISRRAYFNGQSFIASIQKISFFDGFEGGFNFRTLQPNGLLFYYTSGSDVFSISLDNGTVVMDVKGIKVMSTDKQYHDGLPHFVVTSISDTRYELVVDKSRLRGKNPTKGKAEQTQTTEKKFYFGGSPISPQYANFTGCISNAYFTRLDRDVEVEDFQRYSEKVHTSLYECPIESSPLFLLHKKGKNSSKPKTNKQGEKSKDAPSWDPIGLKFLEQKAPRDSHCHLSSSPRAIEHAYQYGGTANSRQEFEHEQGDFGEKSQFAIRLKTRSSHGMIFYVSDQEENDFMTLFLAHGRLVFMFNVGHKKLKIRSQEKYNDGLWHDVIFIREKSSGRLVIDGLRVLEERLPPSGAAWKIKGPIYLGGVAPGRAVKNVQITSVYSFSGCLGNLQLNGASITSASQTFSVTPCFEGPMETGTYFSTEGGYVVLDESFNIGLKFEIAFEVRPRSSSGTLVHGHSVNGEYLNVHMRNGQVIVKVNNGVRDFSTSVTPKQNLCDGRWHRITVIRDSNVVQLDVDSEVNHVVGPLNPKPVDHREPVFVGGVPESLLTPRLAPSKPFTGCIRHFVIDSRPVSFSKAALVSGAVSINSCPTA

[1] = molecular target: T2, human LAMA4 G domain (LG1-5) displayed on 293 cells (human, UniProt Q16363 830-1821); assay: LAMA4 pDisplay flow cytometric blocking assay on LAMA4-displaying 293 cells; blocked ligand: 650-conjugated mouse MCAM-Fc
T2 construct: the vector's tags and membrane anchor are not written here; also called LAMA4-displaying human 293 cells; full length
T2 sequence: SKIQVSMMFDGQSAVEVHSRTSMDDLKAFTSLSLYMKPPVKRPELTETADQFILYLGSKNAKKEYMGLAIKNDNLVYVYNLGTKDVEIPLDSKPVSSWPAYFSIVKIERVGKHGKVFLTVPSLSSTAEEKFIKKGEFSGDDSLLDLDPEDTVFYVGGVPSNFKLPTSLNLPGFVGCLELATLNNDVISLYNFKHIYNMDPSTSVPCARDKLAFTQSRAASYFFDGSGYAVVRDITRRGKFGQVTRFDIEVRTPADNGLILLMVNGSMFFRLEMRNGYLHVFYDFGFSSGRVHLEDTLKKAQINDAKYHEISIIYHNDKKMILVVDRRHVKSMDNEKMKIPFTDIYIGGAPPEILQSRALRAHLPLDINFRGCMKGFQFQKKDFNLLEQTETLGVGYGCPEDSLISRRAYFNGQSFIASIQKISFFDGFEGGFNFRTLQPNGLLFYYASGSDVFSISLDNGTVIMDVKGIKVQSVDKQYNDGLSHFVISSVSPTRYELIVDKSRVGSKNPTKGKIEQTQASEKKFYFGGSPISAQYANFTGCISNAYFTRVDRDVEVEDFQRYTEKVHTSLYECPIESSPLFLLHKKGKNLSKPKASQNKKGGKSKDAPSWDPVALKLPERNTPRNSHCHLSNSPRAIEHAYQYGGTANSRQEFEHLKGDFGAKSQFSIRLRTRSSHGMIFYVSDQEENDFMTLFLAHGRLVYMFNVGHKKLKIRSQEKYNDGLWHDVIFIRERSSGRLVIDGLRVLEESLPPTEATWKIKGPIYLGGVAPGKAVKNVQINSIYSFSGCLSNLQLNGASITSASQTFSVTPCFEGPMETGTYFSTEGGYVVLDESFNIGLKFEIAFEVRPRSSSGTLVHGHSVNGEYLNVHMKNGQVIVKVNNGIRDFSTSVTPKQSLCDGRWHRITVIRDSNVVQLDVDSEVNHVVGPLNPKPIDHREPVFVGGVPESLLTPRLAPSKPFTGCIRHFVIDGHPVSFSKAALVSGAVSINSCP

Chain of recombinant laminin 411 (chain, as listed by the source limits assumed, chain 1 of 3): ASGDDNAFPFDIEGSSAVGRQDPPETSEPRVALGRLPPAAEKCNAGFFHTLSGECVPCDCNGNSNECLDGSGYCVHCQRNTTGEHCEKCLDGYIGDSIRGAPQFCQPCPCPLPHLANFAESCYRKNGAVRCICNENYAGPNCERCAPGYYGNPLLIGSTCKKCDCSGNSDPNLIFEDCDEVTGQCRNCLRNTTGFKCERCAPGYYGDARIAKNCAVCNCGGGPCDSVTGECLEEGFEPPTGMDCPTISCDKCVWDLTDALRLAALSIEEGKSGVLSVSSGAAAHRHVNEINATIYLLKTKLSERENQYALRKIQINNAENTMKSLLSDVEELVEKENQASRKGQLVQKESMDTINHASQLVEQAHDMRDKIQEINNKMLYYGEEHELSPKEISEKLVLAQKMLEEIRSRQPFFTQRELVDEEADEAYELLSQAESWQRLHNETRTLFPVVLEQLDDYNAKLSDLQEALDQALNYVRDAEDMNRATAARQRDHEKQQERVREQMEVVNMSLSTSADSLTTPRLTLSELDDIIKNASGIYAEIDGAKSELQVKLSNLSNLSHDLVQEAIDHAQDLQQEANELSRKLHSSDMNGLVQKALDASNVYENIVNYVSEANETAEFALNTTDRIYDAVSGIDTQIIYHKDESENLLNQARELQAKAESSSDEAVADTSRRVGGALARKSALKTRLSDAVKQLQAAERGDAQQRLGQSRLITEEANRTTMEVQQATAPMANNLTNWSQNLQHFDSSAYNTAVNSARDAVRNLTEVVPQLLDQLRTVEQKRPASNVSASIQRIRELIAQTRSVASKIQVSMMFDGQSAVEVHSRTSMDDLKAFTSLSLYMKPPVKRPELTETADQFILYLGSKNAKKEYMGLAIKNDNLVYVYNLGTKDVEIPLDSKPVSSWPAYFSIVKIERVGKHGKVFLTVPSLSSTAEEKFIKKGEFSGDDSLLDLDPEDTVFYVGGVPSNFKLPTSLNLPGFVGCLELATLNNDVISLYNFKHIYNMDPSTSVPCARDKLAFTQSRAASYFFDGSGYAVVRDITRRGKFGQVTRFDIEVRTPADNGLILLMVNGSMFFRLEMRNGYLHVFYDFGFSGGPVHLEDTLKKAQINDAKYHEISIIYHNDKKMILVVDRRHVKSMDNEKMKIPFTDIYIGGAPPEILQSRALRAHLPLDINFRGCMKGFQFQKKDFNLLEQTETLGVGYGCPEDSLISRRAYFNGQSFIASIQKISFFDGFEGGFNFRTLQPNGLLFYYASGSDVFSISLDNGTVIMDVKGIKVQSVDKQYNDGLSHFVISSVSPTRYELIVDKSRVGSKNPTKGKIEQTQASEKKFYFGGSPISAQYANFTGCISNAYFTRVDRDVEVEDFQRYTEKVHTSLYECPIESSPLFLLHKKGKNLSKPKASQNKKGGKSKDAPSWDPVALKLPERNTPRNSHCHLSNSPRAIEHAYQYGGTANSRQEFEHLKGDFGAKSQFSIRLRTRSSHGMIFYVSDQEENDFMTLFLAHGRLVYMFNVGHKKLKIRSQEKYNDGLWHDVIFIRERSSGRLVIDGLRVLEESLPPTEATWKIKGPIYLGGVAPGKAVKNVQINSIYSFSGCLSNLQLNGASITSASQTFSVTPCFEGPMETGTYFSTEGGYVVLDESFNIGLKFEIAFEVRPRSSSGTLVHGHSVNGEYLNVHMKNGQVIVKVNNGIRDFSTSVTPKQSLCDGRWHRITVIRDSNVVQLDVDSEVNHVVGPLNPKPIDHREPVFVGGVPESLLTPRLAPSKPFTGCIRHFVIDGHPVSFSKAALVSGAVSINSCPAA
Chain of recombinant laminin 411 (P07942 22-1786 limits assumed, chain 2 of 3): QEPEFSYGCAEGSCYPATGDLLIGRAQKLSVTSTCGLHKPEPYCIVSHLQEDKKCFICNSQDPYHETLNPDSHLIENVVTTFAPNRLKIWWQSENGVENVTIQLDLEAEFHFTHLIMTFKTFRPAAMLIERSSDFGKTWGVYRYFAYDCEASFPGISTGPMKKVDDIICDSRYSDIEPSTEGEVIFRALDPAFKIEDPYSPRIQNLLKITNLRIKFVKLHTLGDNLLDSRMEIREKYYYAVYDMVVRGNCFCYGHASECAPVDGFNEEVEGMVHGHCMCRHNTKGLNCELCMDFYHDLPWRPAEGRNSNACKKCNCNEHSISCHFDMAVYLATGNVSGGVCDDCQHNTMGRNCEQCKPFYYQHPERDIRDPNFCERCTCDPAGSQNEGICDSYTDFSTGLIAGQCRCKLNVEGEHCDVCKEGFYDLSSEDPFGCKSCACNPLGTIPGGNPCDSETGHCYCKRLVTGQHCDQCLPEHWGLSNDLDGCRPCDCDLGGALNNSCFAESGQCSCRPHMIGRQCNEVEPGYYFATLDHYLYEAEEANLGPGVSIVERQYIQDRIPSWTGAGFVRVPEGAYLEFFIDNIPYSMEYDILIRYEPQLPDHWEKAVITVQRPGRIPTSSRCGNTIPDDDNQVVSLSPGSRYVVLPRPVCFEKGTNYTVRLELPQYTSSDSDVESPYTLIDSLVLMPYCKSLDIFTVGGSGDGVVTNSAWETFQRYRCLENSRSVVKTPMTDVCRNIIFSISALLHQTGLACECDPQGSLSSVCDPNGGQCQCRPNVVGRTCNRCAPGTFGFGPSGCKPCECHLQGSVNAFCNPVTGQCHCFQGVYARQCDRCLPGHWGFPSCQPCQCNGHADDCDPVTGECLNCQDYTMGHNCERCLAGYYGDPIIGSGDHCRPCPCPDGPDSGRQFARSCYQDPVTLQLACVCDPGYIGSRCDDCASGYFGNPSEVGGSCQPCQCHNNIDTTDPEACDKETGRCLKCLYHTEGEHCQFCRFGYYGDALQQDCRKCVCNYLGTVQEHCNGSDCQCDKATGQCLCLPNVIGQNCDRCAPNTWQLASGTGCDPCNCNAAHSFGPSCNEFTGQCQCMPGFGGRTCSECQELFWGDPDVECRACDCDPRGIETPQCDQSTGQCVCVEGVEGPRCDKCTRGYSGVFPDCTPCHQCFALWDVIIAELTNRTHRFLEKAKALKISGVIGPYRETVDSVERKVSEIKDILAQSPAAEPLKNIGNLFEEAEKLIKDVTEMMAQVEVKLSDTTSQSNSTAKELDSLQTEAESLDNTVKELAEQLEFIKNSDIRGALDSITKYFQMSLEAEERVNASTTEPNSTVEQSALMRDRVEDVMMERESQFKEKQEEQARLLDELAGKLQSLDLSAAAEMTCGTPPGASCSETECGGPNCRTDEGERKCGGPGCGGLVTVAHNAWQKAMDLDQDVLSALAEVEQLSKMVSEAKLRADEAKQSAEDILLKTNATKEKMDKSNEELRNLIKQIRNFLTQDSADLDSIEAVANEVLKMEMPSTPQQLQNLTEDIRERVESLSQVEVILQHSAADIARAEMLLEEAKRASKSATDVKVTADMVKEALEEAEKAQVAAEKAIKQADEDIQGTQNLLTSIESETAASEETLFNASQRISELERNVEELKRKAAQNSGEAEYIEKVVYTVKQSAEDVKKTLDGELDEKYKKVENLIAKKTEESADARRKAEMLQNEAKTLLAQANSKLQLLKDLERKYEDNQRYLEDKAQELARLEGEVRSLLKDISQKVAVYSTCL
Chain of recombinant laminin 411 (P11047 34-1609 limits assumed, chain 3 of 3): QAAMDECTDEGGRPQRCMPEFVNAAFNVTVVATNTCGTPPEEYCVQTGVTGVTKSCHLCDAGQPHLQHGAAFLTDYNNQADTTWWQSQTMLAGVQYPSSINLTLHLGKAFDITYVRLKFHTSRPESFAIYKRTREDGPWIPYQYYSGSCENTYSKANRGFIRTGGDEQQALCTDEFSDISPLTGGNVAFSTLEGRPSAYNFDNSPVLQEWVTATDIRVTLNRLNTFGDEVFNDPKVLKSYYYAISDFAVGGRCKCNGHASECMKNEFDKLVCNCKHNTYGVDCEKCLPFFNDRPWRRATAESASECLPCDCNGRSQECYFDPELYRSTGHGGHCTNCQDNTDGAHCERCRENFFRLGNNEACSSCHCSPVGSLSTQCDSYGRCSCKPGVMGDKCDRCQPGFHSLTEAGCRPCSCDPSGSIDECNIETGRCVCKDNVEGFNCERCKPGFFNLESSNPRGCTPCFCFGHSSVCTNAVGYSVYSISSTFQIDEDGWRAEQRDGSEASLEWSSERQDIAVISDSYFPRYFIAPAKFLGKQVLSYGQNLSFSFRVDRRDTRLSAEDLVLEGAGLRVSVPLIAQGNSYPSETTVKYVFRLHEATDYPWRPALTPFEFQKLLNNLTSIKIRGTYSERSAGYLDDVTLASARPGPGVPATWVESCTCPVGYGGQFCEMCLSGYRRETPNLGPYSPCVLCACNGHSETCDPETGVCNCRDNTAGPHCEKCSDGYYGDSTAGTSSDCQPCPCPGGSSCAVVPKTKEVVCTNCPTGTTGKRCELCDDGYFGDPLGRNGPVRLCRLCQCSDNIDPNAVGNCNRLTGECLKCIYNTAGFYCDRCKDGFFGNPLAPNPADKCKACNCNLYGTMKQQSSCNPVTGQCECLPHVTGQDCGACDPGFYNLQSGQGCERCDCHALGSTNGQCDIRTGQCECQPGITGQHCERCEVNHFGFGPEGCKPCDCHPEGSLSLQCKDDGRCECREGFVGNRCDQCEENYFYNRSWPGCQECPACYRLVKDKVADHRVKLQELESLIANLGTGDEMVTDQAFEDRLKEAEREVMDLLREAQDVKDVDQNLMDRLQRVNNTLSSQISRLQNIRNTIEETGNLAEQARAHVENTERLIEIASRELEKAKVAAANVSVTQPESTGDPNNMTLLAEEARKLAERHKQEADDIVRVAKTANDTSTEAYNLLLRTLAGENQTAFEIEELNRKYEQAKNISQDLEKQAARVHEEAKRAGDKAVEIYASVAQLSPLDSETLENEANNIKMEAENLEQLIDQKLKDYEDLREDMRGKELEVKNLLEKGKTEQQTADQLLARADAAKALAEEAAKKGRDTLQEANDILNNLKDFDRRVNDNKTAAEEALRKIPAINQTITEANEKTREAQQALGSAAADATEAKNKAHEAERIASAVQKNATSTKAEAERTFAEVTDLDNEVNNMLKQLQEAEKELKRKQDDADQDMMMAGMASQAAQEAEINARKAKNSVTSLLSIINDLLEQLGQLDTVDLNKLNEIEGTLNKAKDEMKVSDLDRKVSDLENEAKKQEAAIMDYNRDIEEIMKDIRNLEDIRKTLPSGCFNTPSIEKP

B1: mouse monoclonal antibody 19C12 (antibody, V domains shown)
VH: QVQLQQSGAELVKPGASVKISCKASGYAFSTYWMNWVKQRPGEGLEWIGQIYPGDGDTNYNGKFKGKATLTADKSSSTAYMQLSSLTSEDSAVYFCARSDGYYDYWGQGTTLTVSS
VL: NIVLTQSPASLAVSLGQRATISCRASESVDSYGTSFMHWYQQKPGQPPKLLICLASSLESGVPARFSGSGSRTDFTLTIDPVEADDAATYYCQQNNEDPPTFGAGTKLELKR
notes: Mouse hybridoma antibody; Mouse IgG2b was used as its isotype control; also called m19C12
laminin-411-induced pAkt activation (pAkt/Akt ratio by immunoblot) in WM266.4 cells, 20 ug/ml antibody (recombinant laminin 411): ~50 % inhibition
IC50 (read off the curve) (mouse His-laminin-α4): ~0.1 µg/mL
IC50 (read off the curve) [1]: ~0.03 µg/mL
